Laboratory results from the Human Domainome abundance scans (Beltran et al. 2025).
± gives the uncertainty stated by the source.

B1: Peroxisome proliferator-activated receptor delta, residues 71 to 145; numbered along this chain, Q03181 (parent)
chain: NMECRVCGDKASGFHYGVHACEGCKGFFRRTIRMKLEYEKCERSCKIQKKNRNKCQYCRFQKCLALGMSHNAIRF

Variants of: B1
Assay: abundance fitness (aPCA) (normalised: wild type 0, dead -1); higher = more abundant; growth selection in yeast, the domain comes from the species named
Details: Homo sapiens

Variant | abundance fitness
NMECRVCGDKASGFHYGVTACEGCKGFFRRTIRMKLEYEKCERSCKIQKKNRNKCQYCRFQKCLALGMSHNAIRF [H19T] | 0.041 ± 0.042
NMECRVCGDKASGFHYGVYACEGCKGFFRRTIRMKLEYEKCERSCKIQKKNRNKCQYCRFQKCLALGMSHNAIRF [H19Y] | 0.038 ± 0.063
NMECRVCGDKASGFHYGVHAEEGCKGFFRRTIRMKLEYEKCERSCKIQKKNRNKCQYCRFQKCLALGMSHNAIRF [C21E] | -0.847 ± 0.15
NMECRVCGDKASGFHYGVHAQEGCKGFFRRTIRMKLEYEKCERSCKIQKKNRNKCQYCRFQKCLALGMSHNAIRF [C21Q] | -0.763 ± 0.13
NMECRVCGDKASGFHYGVHAHEGCKGFFRRTIRMKLEYEKCERSCKIQKKNRNKCQYCRFQKCLALGMSHNAIRF [C21H] | -0.714 ± 0.17
NMECRVCGDKASGFHYGVHAKEGCKGFFRRTIRMKLEYEKCERSCKIQKKNRNKCQYCRFQKCLALGMSHNAIRF [C21K] | -0.597 ± 0.12
NMECRVCGDKASGFHYGVHAWEGCKGFFRRTIRMKLEYEKCERSCKIQKKNRNKCQYCRFQKCLALGMSHNAIRF [C21W] | -0.881 ± 0.14
NMECRVCGDKASGFHYGVHAIEGCKGFFRRTIRMKLEYEKCERSCKIQKKNRNKCQYCRFQKCLALGMSHNAIRF [C21I] | -0.608 ± 0.17
NMECRVCGDKASGFHYGVHATEGCKGFFRRTIRMKLEYEKCERSCKIQKKNRNKCQYCRFQKCLALGMSHNAIRF [C21T] | -0.83 ± 0.1
NMECRVCGDKASGFHYGVHAYEGCKGFFRRTIRMKLEYEKCERSCKIQKKNRNKCQYCRFQKCLALGMSHNAIRF [C21Y] | -0.599 ± 0.15
NMECRVCGDKASGFHYGVHAREGCKGFFRRTIRMKLEYEKCERSCKIQKKNRNKCQYCRFQKCLALGMSHNAIRF [C21R] | -0.865 ± 0.09
NMECRVCGDKASGFHYGVHADEGCKGFFRRTIRMKLEYEKCERSCKIQKKNRNKCQYCRFQKCLALGMSHNAIRF [C21D] | -0.875 ± 0.37
NMECRVCGDKASGFHYGVHASEGCKGFFRRTIRMKLEYEKCERSCKIQKKNRNKCQYCRFQKCLALGMSHNAIRF [C21S] | -0.867 ± 0.094
NMECRVCGDKASGFHYGVHAPEGCKGFFRRTIRMKLEYEKCERSCKIQKKNRNKCQYCRFQKCLALGMSHNAIRF [C21P] | -1.14 ± 0.26
NMECRVCGDKASGFHYGVHALEGCKGFFRRTIRMKLEYEKCERSCKIQKKNRNKCQYCRFQKCLALGMSHNAIRF [C21L] | -0.942 ± 0.11
NMECRVCGDKASGFHYGVHAMEGCKGFFRRTIRMKLEYEKCERSCKIQKKNRNKCQYCRFQKCLALGMSHNAIRF [C21M] | -0.912 ± 0.26
NMECRVCGDKASGFHYGVHAAEGCKGFFRRTIRMKLEYEKCERSCKIQKKNRNKCQYCRFQKCLALGMSHNAIRF [C21A] | -0.705 ± 0.099
NMECRVCGDKASGFHYGVHAGEGCKGFFRRTIRMKLEYEKCERSCKIQKKNRNKCQYCRFQKCLALGMSHNAIRF [C21G] | -0.633 ± 0.067
NMECRVCGDKASGFHYGVHACHGCKGFFRRTIRMKLEYEKCERSCKIQKKNRNKCQYCRFQKCLALGMSHNAIRF [E22H] | -0.385 ± 0.099

Variant | abundance fitness
NMECRVCGDKASGFHYGVHACAGCKGFFRRTIRMKLEYEKCERSCKIQKKNRNKCQYCRFQKCLALGMSHNAIRF [E22A] | -0.256 ± 0.045
NMECRVCGDKASGFHYGVHACPGCKGFFRRTIRMKLEYEKCERSCKIQKKNRNKCQYCRFQKCLALGMSHNAIRF [E22P] | -0.294 ± 0.056
NMECRVCGDKASGFHYGVHACCGCKGFFRRTIRMKLEYEKCERSCKIQKKNRNKCQYCRFQKCLALGMSHNAIRF [E22C] | -0.258 ± 0.076
NMECRVCGDKASGFHYGVHACQGCKGFFRRTIRMKLEYEKCERSCKIQKKNRNKCQYCRFQKCLALGMSHNAIRF [E22Q] | -0.332 ± 0.079
NMECRVCGDKASGFHYGVHACYGCKGFFRRTIRMKLEYEKCERSCKIQKKNRNKCQYCRFQKCLALGMSHNAIRF [E22Y] | -0.389 ± 0.099
NMECRVCGDKASGFHYGVHACSGCKGFFRRTIRMKLEYEKCERSCKIQKKNRNKCQYCRFQKCLALGMSHNAIRF [E22S] | -0.405 ± 0.052
NMECRVCGDKASGFHYGVHACTGCKGFFRRTIRMKLEYEKCERSCKIQKKNRNKCQYCRFQKCLALGMSHNAIRF [E22T] | -0.282 ± 0.056
NMECRVCGDKASGFHYGVHACDGCKGFFRRTIRMKLEYEKCERSCKIQKKNRNKCQYCRFQKCLALGMSHNAIRF [E22D] | -0.148 ± 0.074
NMECRVCGDKASGFHYGVHACGGCKGFFRRTIRMKLEYEKCERSCKIQKKNRNKCQYCRFQKCLALGMSHNAIRF [E22G] | -0.341 ± 0.05
NMECRVCGDKASGFHYGVHACKGCKGFFRRTIRMKLEYEKCERSCKIQKKNRNKCQYCRFQKCLALGMSHNAIRF [E22K] | -0.297 ± 0.065
NMECRVCGDKASGFHYGVHACIGCKGFFRRTIRMKLEYEKCERSCKIQKKNRNKCQYCRFQKCLALGMSHNAIRF [E22I] | -0.176 ± 0.087
NMECRVCGDKASGFHYGVHACRGCKGFFRRTIRMKLEYEKCERSCKIQKKNRNKCQYCRFQKCLALGMSHNAIRF [E22R] | -0.293 ± 0.041
NMECRVCGDKASGFHYGVHACVGCKGFFRRTIRMKLEYEKCERSCKIQKKNRNKCQYCRFQKCLALGMSHNAIRF [E22V] | -0.325 ± 0.055
NMECRVCGDKASGFHYGVHACNGCKGFFRRTIRMKLEYEKCERSCKIQKKNRNKCQYCRFQKCLALGMSHNAIRF [E22N] | -0.207 ± 0.09
NMECRVCGDKASGFHYGVHACFGCKGFFRRTIRMKLEYEKCERSCKIQKKNRNKCQYCRFQKCLALGMSHNAIRF [E22F] | -0.343 ± 0.091
NMECRVCGDKASGFHYGVHACMGCKGFFRRTIRMKLEYEKCERSCKIQKKNRNKCQYCRFQKCLALGMSHNAIRF [E22M] | -0.205 ± 0.062
NMECRVCGDKASGFHYGVHACWGCKGFFRRTIRMKLEYEKCERSCKIQKKNRNKCQYCRFQKCLALGMSHNAIRF [E22W] | -0.425 ± 0.095
NMECRVCGDKASGFHYGVHACLGCKGFFRRTIRMKLEYEKCERSCKIQKKNRNKCQYCRFQKCLALGMSHNAIRF [E22L] | -0.508 ± 0.056
